The values that follow come from patent publication US20260184782A1 (TWIST BIOSCIENCE, published 2026).

T1: recombinant human TIGIT (human, UniProt Q495A1 22-141, limits assumed)
T1 construct: recombinant human TIGIT used in Carterra SPR; also called hTIGIT
T1 sequence (looked up): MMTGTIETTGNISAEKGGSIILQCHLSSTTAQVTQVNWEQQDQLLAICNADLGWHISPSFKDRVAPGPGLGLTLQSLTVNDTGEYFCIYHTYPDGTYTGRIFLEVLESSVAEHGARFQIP

B1: TIGIT-SC9 (Fc fusion)
VHH: EVQLVESGGGLVQPGGSLRLSCAASGNTFSGGFMGWFRQAPGKEREWVASVLRGGYTWYADSVKGRFTISADNSKNTAYLQMNSLKPEDTAVYYCVNGYSYGRDYWGQGTLVTVSS
notes: VHH-Fc fusion in assay
B2: TIGIT-SC74 (Fc fusion)
VHH: EVQLVESGGGLVQPGGSLRLSCAASGRTFANNAMGWFRQAPGKEREFVAAINWSGGNTYYADSVKGRFTISADNSKNTAYLQMNSLKPEDTAVYYCAKWSYYGSGLYGMDVWGQGTLVTVSS
notes: VHH-Fc fusion in assay
B3: TIGIT-SC82 (Fc fusion)
VHH: B2 VHH with R27S, T28M, F29S, A30S, N32Y, N52D, S100F, G108T, M109L
notes: VHH-Fc fusion in assay
B4: TIGIT-SC83 (Fc fusion)
VHH: B2 VHH with A30S, N31D, N32D, N52S, W53R, S100F, G108T, M109L
notes: VHH-Fc fusion in assay
B5: TIGIT-SC75 (Fc fusion)
VHH: B2 VHH with R27F, T28I, F29G, A30N, N31Y, N32H, N52R, G55D, N57S, T58S
notes: VHH-Fc fusion in assay
B6: TIGIT-SC70 (Fc fusion)
VHH: EVQLVESGGGLVQPGGSLRLSCAASGRTFSSFAMGWFRQAPGKEREFVAAISGSGEDTYYADSVKGRFTISADNSKNTAYLQMNSLKPEDTAVYYCARWRLDRRQGFYYAMDVWGQGTLVTVSS
notes: VHH-Fc fusion in assay
B7: TIGIT-SC40 (Fc fusion)
VHH: EVQLVESGGGLVQPGGSLRLSCAASGFSFDRWAMGWFRQAPGKERELVARISWNGGSTYYADSVKGRFTISADNSKNTAYLQMNSLKPEDTAVYYCARDDGWLQFMHWGQGTLVTVSS
notes: VHH-Fc fusion in assay
B8: TIGIT-SC43 (Fc fusion)
VHH: EVQLVESGGGLVQPGGSLRLSCAASGFTFADYAMGWFRQAPGKEREMVAAIGWNSGTTEYADSVKGRFTISADNSKNTAYLQMNSLKPEDTAVYYCARDTNGWFFDFWGQGTLVTVSS
notes: VHH-Fc fusion in assay
B9: TIGIT-SC33 (Fc fusion)
VHH: EVQLVESGGGLVQPGGSLRLSCAASGFLFDSYAMGWFRQAPGKEREFVAAVSQSGLLTFYADSVKGRFTISADNSKNTAYLQMNSLKPEDTAVYYCASRTSSWWWFDPWGQGTLVTVSS
notes: VHH-Fc fusion in assay
B10: TIGIT-SC92 (Fc fusion)
VHH: EVQLVESGGGLVQPGGSLRLSCAASGSTIENYAMGWFRQAPGKEREFVAAIDWSGGSTYYADSVKGRFTISADNSKNTAYLQMNSLKPEDTAVYYCARWRSIWSGYDDYYYMDVWGQGTLVTVSS
notes: VHH-Fc fusion in assay
B11: TIGIT-SC91 (Fc fusion)
VHH: B10 VHH with S27F, I29F, E30S, D52N, S54N, G55S, G56R
notes: VHH-Fc fusion in assay
B12: TIGIT-SC93 (Fc fusion)
VHH: B10 VHH with G26S, S27R, I29V, E30S, N31S, Y32H, D52S, G56V, S57T
notes: VHH-Fc fusion in assay
B13: TIGIT-SC7 (Fc fusion)
VHH: EVQLVESGGGLVQPGGSLRLSCAASGRSFSMYVMGWFRQAPGKEREGVSFISGSDGSTLYADSVKGRFTISADNSKNTAYLQMNSLKPEDTAVYYCARGSIAARPVFFDYWGQGTLVTVSS
notes: VHH-Fc fusion in assay
B14: TIGIT-SC4 (Fc fusion)
VHH: EVQLVESGGGLVQPGGSLRLSCAASGSIDRINAMGWFRQATGKEREWVASVLRGGYTWYADSVKGRFTISADNSKNTAYLQMNSLKPEDTAVYYCARDSYSTSFWFDPWGQGTLVTVSS
notes: VHH-Fc fusion in assay
B15: TIGIT-SC122 (Fc fusion)
VHH: EVQLVESGGGLVQPGGSLRLSCAASGFSFDDYVMGWFRQAPGKEREFVAAISMSGGYTHYADSVKGRFTISADNSKNTAYLQMNSLKPEDTAVYYCAREGYYGSGSYLVYWGQGTLVTVSS
notes: VHH-Fc fusion in assay
B16: TIGIT-SC123 (Fc fusion)
VHH: B15 VHH with F27S, S28I, D30S, D31G, Y32N, V33T, M53W, G56A, H59E
notes: VHH-Fc fusion in assay
B17: TIGIT-SC214 (Fc fusion)
VHH: EVQLVESGGGLVQPGGSLRLSCAASGFTFGDSWMGWFRQAPGKEHEFVAAIWRSGTLKAYADSVKGRFTISADNSKNTAYLQMNSLKPEDTAVYYCTSYDAVAGTRDFWGQGTLVTVSS
notes: VHH-Fc fusion in assay
B18: TIGIT-SC71 (Fc fusion)
VHH: EVQLVESGGGLVQPGGSLRLSCAASGSIRSLNAMGWFRQAPGKEREFVAAINWDSARTYYADSVKGRFTISADNSKNTAYLQMNSLKPEDTAVYYCARWSAKRHSDTMTYYMDVWGQGTLVTVSS
notes: VHH-Fc fusion in assay
B19: TIGIT-SC86 (Fc fusion)
VHH: EVQLVESGGGLVQPGGSLRLSCAASGIIASDSAMGWFRQAPGKEREFVAAIRWSGKETWYADSVKGRFTISADNSKNTAYLQMNSLKPEDTAVYYCARWGGVTFGGVYPLEYWGQGTLVTVSS
notes: VHH-Fc fusion in assay
B20: TIGIT-SC103 (Fc fusion)
VHH: EVQLVESGGGLVQPGGSLRLSCAASGTITSAVFMGWFRQAPGKEREFVAAISWSGGDTNYADSVKGRFTISADNSKNTAYLQMNSLKPEDTAVYYCARWGGITFGGVYPLDYWGQGTLVTVSS
notes: VHH-Fc fusion in assay
B21: TIGIT-SC88 (Fc fusion)
VHH: EVQLVESGGGLVQPGGSLRLSCAASGFTFSSDWMGWFRQAPGKEREFVAAINRSGHSTSYADSVKGRFTISADNSKNTAYLQMNSLKPEDTAVYYCARWGGVTFGGVYPLEYWGQGTLVTVSS
notes: VHH-Fc fusion in assay
B22: TIGIT-SC106 (Fc fusion)
VHH: EVQLVESGGGLVQPGGSLRLSCAASGFPFDDYAMGWFRQAPGKERELVAVIRWTGMSTHYADSVKGRFTISADNSKNTAYLQMNSLKPEDTAVYYCAKGIAVAGAFDYWGQGTLVTVSS
notes: VHH-Fc fusion in assay
B23: TIGIT-SC55 (Fc fusion)
VHH: B22 VHH with S57N
notes: VHH-Fc fusion in assay
B24: TIGIT-SC195 (Fc fusion)
VHH: EVQLVESGGGLVQPGGSLRLSCAASGFAFSSDWMGWFRQAPGKEREWVASVLRGGYTWYADSVKGRFTISADNSKNTAYLQMNSLKPEDTAVYYCARGEGFDYWGQGTLVTVSS
B25: TIGIT-SC203 (Fc fusion)
VHH: B24 VHH with A28T, S31P, D32S, G98D, E99R, F101G, D102S, Y103D
notes: VHH-Fc fusion in assay
B26: TIGIT-SC200 (Fc fusion)
VHH: B24 VHH with F27N, A28T, S31G, D32G, W33F, A96T, G98D, E99G, Y103P
notes: VHH-Fc fusion in assay
B27: TIGIT-SC198 (Fc fusion)
VHH: B24 VHH with A28T, S31P, D32S, W47Y, R97S, G98E, E99G, G100D, F101P
notes: VHH-Fc fusion in assay
B28: TIGIT-SC201 (Fc fusion)
VHH: B24 VHH with A28T, S31P, D32S, A96T, G98D, E99G, Y103P
notes: VHH-Fc fusion in assay
B29: TIGIT-SC76 (Fc fusion)
VHH: EVQLVESGGGLVQPGGSLRLSCAASGFTFSDYAMGWFRQAPGKERELVARIGHDGSTDYADSVKGRFTISADNSKNTAYLQMNSLKPEDTAVYYCLGGLDPWGQGTLVTVSS
notes: VHH-Fc fusion in assay

Residue numbers refer to the chain shown, from its start.

The experiment deals with T1, recombinant human TIGIT. Put plainly: SPR Carterra, average. The method, then:
Binding affinities of VHH-Fc proteins to recombinant human TIGIT were measured by SPR using a Carterra instrument (Table 10A). […] Average values reported from measurements from 1-2 samples.
In general, Kd refers to a measure of binding affinity in units of concentration. By koff is commonly meant the rate constant with which the complex falls apart. The term kon denotes the second-order rate constant of association. With B1, the Kd worked out at 9.35 nM, the koff turned out to be 0.00159 s⁻¹ and the kon was 268000 M⁻¹ s⁻¹.
B2: the Kd came to 18 nM, the koff turned out to be 0.00329 s⁻¹ and the kon was found to be 183000 M⁻¹ s⁻¹.
B3: the Kd came out at 57 nM, the off-rate (koff) was 0.00324 s⁻¹ and the kon stood at 56700 M⁻¹ s⁻¹.
Turning to B4, the Kd was determined as 29.1 nM, the koff stood at 0.00378 s⁻¹ and the kon was 132000 M⁻¹ s⁻¹.
On the same counts, the results for B5 are 7.44 nM, 0.000376 s⁻¹ and 50500 M⁻¹ s⁻¹.
B6: the Kd stood at 11.2 nM, the koff stood at 0.00359 s⁻¹ and the kon came out at 321000 M⁻¹ s⁻¹.
On the same counts, the results for B7 are 11.4 nM, 0.0015 s⁻¹ and 137000 M⁻¹ s⁻¹.
With B8, the Kd was determined as 12 nM, the koff is 0.0013 s⁻¹ and the kon came to 112000 M⁻¹ s⁻¹.
Take B9: the dissociation constant (Kd) turned out to be 6.72 nM, the koff turned out to be 0.00107 s⁻¹ and the kon was 182000 M⁻¹ s⁻¹.
On the same counts, the results for B10 are 105 nM, 0.00289 s⁻¹ and 27500 M⁻¹ s⁻¹.
Consider B11, for which the Kd was determined as 5.42 nM, the koff amounted to 0.0071 s⁻¹ and the kon is 1.31e+06 M⁻¹ s⁻¹.
Regarding B12, the Kd came to 49.9 nM, the koff stood at 0.00407 s⁻¹ and the kon is 81500 M⁻¹ s⁻¹.
Regarding B13, the Kd was 12.1 nM, the off-rate (koff) is 0.00372 s⁻¹ and the kon amounted to 306000 M⁻¹ s⁻¹.
Turning to B14, the Kd was determined as 6.24 nM, the off-rate (koff) worked out at 0.00222 s⁻¹ and the kon was 356000 M⁻¹ s⁻¹.
Consider B15, for which the dissociation constant (Kd) is 10.7 nM, the koff came to 0.00217 s⁻¹ and the on-rate constant (kon) amounted to 524000 M⁻¹ s⁻¹.
In the case of B16, the Kd was found to be 47.3 nM, the off-rate (koff) was 0.00232 s⁻¹ and the on-rate constant (kon) was found to be 49100 M⁻¹ s⁻¹.
In the case of B17, the dissociation constant (Kd) is 6.13 nM, the koff amounted to 0.0248 s⁻¹ and the on-rate (kon) was 4.05e+06 M⁻¹ s⁻¹.
On the same counts, the results for B18 are 10.5 nM, 0.00436 s⁻¹ and 413000 M⁻¹ s⁻¹.
Taken in the same sequence, the figures for B19 were 7.14 nM, 0.00212 s⁻¹ and 341000 M⁻¹ s⁻¹.
Take B20: the Kd was 34.3 nM, the koff is 0.00498 s⁻¹ and the kon is 145000 M⁻¹ s⁻¹.
B21: the Kd worked out at 22 nM, the koff amounted to 0.00204 s⁻¹ and the kon is 92500 M⁻¹ s⁻¹.
Taken in the same sequence, the figures for B22 were 7.99 nM, 0.000753 s⁻¹ and 95500 M⁻¹ s⁻¹.
Consider B23, for which the Kd worked out at 28.5 nM, the dissociation rate constant (koff) was determined as 0.00231 s⁻¹ and the on-rate constant (kon) stood at 90600 M⁻¹ s⁻¹.
With B24, the Kd turned out to be 478 nM, the off-rate constant (koff) was 0.142 s⁻¹ and the kon came out at 296000 M⁻¹ s⁻¹.
On the same counts, the results for B25 are 914 nM, 0.14 s⁻¹ and 153000 M⁻¹ s⁻¹.
Consider B26, for which the dissociation constant (Kd) is 5.34 nM, the koff worked out at 0.00143 s⁻¹ and the kon came out at 290000 M⁻¹ s⁻¹.
Take B27: the Kd was 27.6 nM, the koff was 0.00285 s⁻¹ and the association rate constant (kon) worked out at 103000 M⁻¹ s⁻¹.
Taken in the same sequence, the figures for B28 were 1590 nM, 0.000901 s⁻¹ and 567 M⁻¹ s⁻¹.
For B29, the dissociation constant Kd was 7.64 nM, the koff was found to be 0.00717 s⁻¹ and the kon amounted to 938000 M⁻¹ s⁻¹.
